B2: ClpA (enzyme, E. coli, UniProt P0ABH9 1-758, looked up)
chain: MLNQELELSLNMAFARAREHRHEFMTVEHLLLALLSNPSAREALEACSVDLVALRQELEAFIEQTTPVLPASEEERDTQPTLSFQRVLQRAVFHVQSSGRNEVTGANVLVAIFSEQESQAAYLLRKHEVSRLDVVNFISHGTRKDEPTQSSDPGSQPNSEEQAGGEERMENFTTNLNQLARVGGIDPLIGREKELERAIQVLCRRRKNNPLLVGESGVGKTAIAEGLAWRIVQGDVPEVMADCTIYSLDIGSLLAGTKYRGDFEKRFKALLKQLEQDTNSILFIDEIHTIIGAGAASGGQVDAANLIKPLLSSGKIRVIGSTTYQEFSNIFEKDRALARRFQKIDITEPSIEETVQIINGLKPKYEAHHDVRYTAKAVRAAVELAVKYINDRHLPDKAIDVIDEAGARARLMPVSKRKKTVNVADIESVVARIARIPEKSVSQSDRDTLKNLGDRLKMLVFGQDKAIEALTEAIKMARAGLGHEHKPVGSFLFAGPTGVGKTEVTVQLSKALGIELLRFDMSEYMERHTVSRLIGAPPGYVGFDQGGLLTDAVIKHPHAVLLLDEIEKAHPDVFNILLQVMDNGTLTDNNGRKADFRNVVLVMTTNAGVRETERKSIGLIHQDNSTDAMEEIKKIFTPEFRNRLDNIIWFDHLSTDVIHQVVDKFIVELQVQLDQKGVSLEVSQEARNWLAEKGYDRAMGARPMARVIQDNLKKPLANELLFGSLVDGGQVTVALDKEKNELTYGFQSAQKHKAEAAH

In the series “ClpA” the target is B2. Description: cryo-EM structure.
The series “cryo-EM structure” concerns the molecule itself. The series is described as follows: cryo-EM structure.

B1: ClpP (enzyme)
chain: not shown
Consider B1, for which, in the series with ClpA, the binding result is “binds”. Besides, the “stoichiometry N” value in the series “cryo-EM structure” was determined as 14.
B2: in the series “cryo-EM structure”, the “stoichiometry N” value stood at 6.

The record behind these values is PMC7529148 (Nature structural & molecular biology, 2020).
